Results as given in US20100159560.

Tests used:
[1] = target: T1, protransglutaminase of Streptoverticillium mobaraense IFO13819 (pro-MTG), P81453
T1 chain: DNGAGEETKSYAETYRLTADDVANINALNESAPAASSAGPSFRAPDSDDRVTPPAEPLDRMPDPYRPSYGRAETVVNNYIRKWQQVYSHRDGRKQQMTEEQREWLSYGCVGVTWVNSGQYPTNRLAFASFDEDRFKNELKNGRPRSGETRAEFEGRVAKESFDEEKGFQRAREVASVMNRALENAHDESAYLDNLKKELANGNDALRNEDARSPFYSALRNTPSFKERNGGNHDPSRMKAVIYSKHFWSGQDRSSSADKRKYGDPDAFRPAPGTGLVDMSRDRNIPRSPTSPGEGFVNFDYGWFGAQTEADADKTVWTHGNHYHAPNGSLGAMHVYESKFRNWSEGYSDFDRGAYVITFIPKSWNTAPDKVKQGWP

[2] = target: T2, synthetic peptide Gly-Pro-Ser-Phe-Arg-Ala-Pro-Asp-Ser
T2 chain: GPSFRAPDS

[3] = target: T3, Streptomyces subtilisin inhibitor (SSI) derived from actinomycetes, P01006
T3 chain: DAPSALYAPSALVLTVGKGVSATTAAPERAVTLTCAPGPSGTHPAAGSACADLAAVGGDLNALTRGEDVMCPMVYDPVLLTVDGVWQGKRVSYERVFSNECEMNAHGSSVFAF

B1: neutral metalloprotease SVP35 from Streptoverticillium mobaraense IFO13819 (protein)
chain: GTGTSTYSGTVPLTTTKSGSQYQLNDGARGGHKTYDLNQGTSGTGSLFTNSTDTWGGGRQTAGVDAHYGAAVTWDFYKNVFGRNGIRNDGKAAYSRVHYGNSYVNAFWSDSCFCMTYGDGQNNKNPLTALDVAAHEMSHGVTAATAKLVYSGESGGLNEATSDIFGTAVEFYANNKTDVGDYLIGEKINIYGDGKPLRYMDKPSKDGKSKDSWYSGIGGVDVHYSSGPANHFFYLLSEGSGKKTINGVDYDSPTADGSKVTGIGRDKAQKIWYKALTTQFTSNTNYAKARTGTLNAAASLYGNNSAEYKAVAAAWSAINVK
- cleavage points (HPLC separation and sequencing of peptide fragments) [1]: cleaved before (at the N-terminal of) especially Phe, often Leu, sometimes Tyr, Trp, Ile, Val
- conversion of pro-MTG to mature MTG (SDS-PAGE time course; TG activity by the hydroxamate method), substrate:enzyme = 200:1 [1]: pro-MTGs were converted to the mature forms, and the produced MTGs were not reduced even after a long-term reaction
- cleavage activity on the peptide substrate (HPLC, decrease of substrate) [2]: SVP35 was allowed to act on Gly-Pro-Ser-Phe-Arg-Ala-Pro-Asp-Ser (SEQ ID NO: 11) as a substrate
- cleavage points (HPLC separation and sequencing of peptide fragments) (insulin B): cleaved before (at the N-terminal of) especially Phe, often Leu, sometimes Tyr, Trp, Ile, Val
- relative activity (Gly-Pro-Ser-Phe-Arg-Ala-Pro-Asp-Ser cleavage activity, absence of compounds = 100%) [3]: strongly inhibited
